Source: patent publication US20090285824A1

Assays:
[1] = biological target: hu IGF-1R(ECD)-C3-muIgG1Fc (human; mouse); assay: ORIGEN competition: antibody vs 1 nM Ru-IGF-1 on IGF-1R(ECD)-C3-muFc beads
[2] = biological target: hu IGF-1R(ECD)-C3-muIgG1Fc (human; mouse); assay: ORIGEN competition: antibody vs 2 nM Ru-IGF-2 on IGF-1R(ECD)-C3-muFc beads

Ki [1] [nM] | Max (%), maximum level of inhibition at 1 µM antibody [1] [%] | Ki [2] [nM] | Max (%), maximum level of inhibition at 1 µM antibody [2] [%] | Substance
16 | 89 | 13.1 | 99 | murine anti-IGF-1R antibody 1H7 (Santa Cruz Biotechnology)
5.3 | 91 |  |  | murine anti-IGF-1R antibody αIR3 (Calbiochem)
